Measurements from patent US20180119166A1 (UNIVERSITY INDUSTRY FOUNDATION YONSEI UNIVERSITY, published 2018).

B1: 6x-histidine-fused LOS4 (LOS4-His) (enzyme)
chain: MADTVEKVPTVVESSSSSTVEASNSAEKTEPTTEKKKWGDVEDDDDEEEAVSELNSLSIKEEEKPDSILEEPEDSNIKAVTSGDTPYTSASRFEDLNLSPELMKGLYVEMKFEKPSKIQAISLPMIMTPPHKHLIAQAHNGSGKTTCFVLGMLSRVDPTLREPQALCICPTRELANQNMEVLQKMGKFTGITAELAVPDSTRGAPAATRGAPVSAHVVIGTPGTLKKWMAFKRLGLNHLKILVFDEADHMLATDGFRDDSLKIMKDIGRVNPNFQVLLFSATFNETVKDFVARTVKDPNQLFVKREDLALDSVKQYKVVCPKEQNKIEVIKDQIMELGDIGQTIIFVKTKASAQKVHKALAEMGYDVTSVHGNLTESDRDKIVKEFKECLTQVLIATDVIARGFDQQRVNLVVNYNLPTKYETGEPDYEVYLHRVGRAGRFGRKGAVFNLLLDDGWDKEVMEKIEKYFEANVKEIKSWNSEEEYKSALKEAGLLDEHHHHHH
notes: Recombinant protein from E. coli Rosetta (DE3); also called LOS-His
B2: IPK1 (BiFC fusion protein, FIG. 8B) (enzyme, Arabidopsis, UniProt Q93YN9 1-451, looked up)
chain: MEMILEEKDASDWIYRGEGGANLVLAYAGSSPLFVGKVIRIQKARRNDKAIKNANGVVSVLTSDEQHLWRENNELISSPNKEVLEQRYVKNVIIPLLGPKHVDAGVRVSVSKEFLECVDKKVTKQRPLWRVNAANVDTSHDSALILNDHSLFSQGISSGGDCISVEIKPKCGFLPTSRFIGKENMLKTSVSRFKMHQLLKLEYNEISEESEYDPLDLFSGSKESVLEAIKALYSTPQNNFRVFLNGSLILGGSGESTGRTSPEIGYAFEDALKGFIQSEDGHRTECFLQLVSDAVYGSGVLDRLLEIQKLDKLDIEGAIHSYYDLINQPCPICKEGKPLEAELSLHALPLDESLKIVKEYLIAATAKDCSIMISFQSRNAWDSEPSGDYVSLKPTNQTFDYKVHFIDLSLKPLKRMESYYKLDKKIISFYNRKQKAENTAEQIGNSKPSHS
notes: Expressed in N. benthamiana leaves by agroinfiltration; also called inositol 1,3,4,5,6-pentakisphosphate 2-kinase; not shown: YFP fragment for BiFC
B3: maltose-binding protein (MBP)-fused Gle1 (MBP-Gle1) (other, not shown: large carriers)
chain: MGIVLEPPCPKSVDGISIDPEPNWNFESLVAEIASVEKKLNGFSMYPQPITNTTLRMGRRGGGFVMHVSEDEMESDEGEESDDEEEEEDHSQICTAGKRFACDELYLSDESDEEFDHEPEYMMNKLGLAESALYEVINDHQTEIKDDIRNQVSVVETEIMNEIETSLSAIARVEKYSETRKEVERKLDLQYQRKVAEALDTHLTAVQREHKIKSQIEERKIRSEEAQEEARRKERAHQEEKIRQEKARAEAQMLAKIRAEEEKKEVERKAAREVAEKEVADRKAAEQKLAEQKAVIESVTGSSATSNAQAGGNSIRAAESALILENHRLKKLEELETTNQSLKSRSNENFSSFEKHIGRVIRQISGTKDSVSGKINDIVKIFKDPRCPVSISIAAFAKKMVTTKEKPNPFACSYVIVYINSQFPQVMDILLAEFHKACIYTVPKHIVNSQSAWDSDAYERLDSIMRLYGALVQTDIRVGNATNVHGIEHGWAWLARFLNKIPANRATATALNSFLQTAGFGLHQRYKSQFLKVVNVVREHFLQKLRAKKDTSDLLVIIAEITAYLDDRMYLKEPEGRAMKTTSTLSSELTAELNQPNYNQNYQRNDYRNYY
B4: LOS4-YFP^C (other, Arabidopsis, UniProt Q93ZG7 1-496, looked up)
chain: MADTVEKVPTVVESSSSSTVEASNSAEKTEPTTEKKKWGDVEDDDDEEEAVSELNSLSIKEEEKPDSILEEPEDSNIKAVTSGDTPYTSASRFEDLNLSPELMKGLYVEMKFEKPSKIQAISLPMIMTPPHKHLIAQAHNGSGKTTCFVLGMLSRVDPTLREPQALCICPTRELANQNMEVLQKMGKFTGITAELAVPDSTRGAPAATRGAPVSAHVVIGTPGTLKKWMAFKRLGLNHLKILVFDEADHMLATDGFRDDSLKIMKDIGRVNPNFQVLLFSATFNETVKDFVARTVKDPNQLFVKREDLALDSVKQYKVVCPKEQNKIEVIKDQIMELGDIGQTIIFVKTKASAQKVHKALAEMGYDVTSVHGNLTESDRDKIVKEFKECLTQVLIATDVIARGFDQQRVNLVVNYNLPTKYETGEPDYEVYLHRVGRAGRFGRKGAVFNLLLDDGWDKEVMEKIEKYFEANVKEIKSWNSEEEYKSALKEAGLLDE
notes: BiFC construct expressed in N. benthamiana leaves by agroinfiltration; also called YFP^C-fusion protein of LOS4; not shown: C-terminal fragment of YFP (YFP^C) for BiFC

What was measured:
[1] = target: maltose-binding protein (MBP) (UniProt P0AEX9 27-392 = MBP); test: in vitro pull-down on nickel resin, Coomassie blue staining
Description: Purified recombinant proteins are stained with Coomassie blue (left). A mixture of the proteins is bound to a nickel resin or amylose resin, and the resin-bound proteins are eluted and then stained with Coomassie blue (right);
After extensive washing of the resins, the bound proteins were eluted with 2×SDS sample buffer, and the eluted proteins were visualized by Coomassie blue staining.

[2] = target: T1, LOS4 (BiFC fusion protein, FIG. 8B) (Arabidopsis, UniProt Q93ZG7 1-496); test: BiFC (FIG. 8), told again in the discussion
T1 construct: not shown: YFP fragment for BiFC
T1 sequence (looked up): B4 chain

[3] = target: B1; test: cell-based or functional assay
[4] = target: T2, YFP^N-Gle1 (Arabidopsis, UniProt Q0WPZ7 1-611); test: BiFC in N. benthamiana leaves (agroinfiltration), confocal microscopy
T2 construct: BiFC construct expressed in N. benthamiana leaves by agroinfiltration; also called YFP^N-fusion protein of Arabidopsis Gle1; not shown: N-terminal fragment of YFP (YFP^N) for BiFC
T2 sequence: B3 chain

B1: no binding [1].

B2: binds [2].

In the case of B3, the “LOS4 ATPase activity with RNA and MBP-Gle1 (2 µM), LOS4-His 1 µM” value [3] is reported as about 3 fold and the “LOS4 ATPase activity with RNA, MBP-Gle1 (2 µM) and InsP6 (10 µM)” value [3] is reported as over 4 fold.

B4: binds [4].
